Data taken from patent US20240301049A1 (Ablynx, published 2024).

Columns and labels:
Assay in all cases: cell-based or functional assay
human TNF-α [1] = biological target: T1, human TNF-α (human, UniProt P01375 77-233)
cyno IL-6 [2] = biological target: T2, cyno IL-6 (cynomolgus monkey, UniProt P79341 28-212, limits assumed)
T2 sequence (looked up): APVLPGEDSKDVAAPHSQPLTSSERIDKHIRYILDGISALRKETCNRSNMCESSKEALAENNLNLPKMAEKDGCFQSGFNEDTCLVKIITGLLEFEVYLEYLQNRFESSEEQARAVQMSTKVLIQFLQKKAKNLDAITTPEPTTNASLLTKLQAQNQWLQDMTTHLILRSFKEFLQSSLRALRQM

human IL-6 [3] = biological target: T3, human IL-6 (human, UniProt P05231 30-212)
cyno TNF-α [4] = biological target: T4, cyno TNF-α (cynomolgus monkey, UniProt P79337 77-233)
T4 sequence (P79337 77-233 limits assumed): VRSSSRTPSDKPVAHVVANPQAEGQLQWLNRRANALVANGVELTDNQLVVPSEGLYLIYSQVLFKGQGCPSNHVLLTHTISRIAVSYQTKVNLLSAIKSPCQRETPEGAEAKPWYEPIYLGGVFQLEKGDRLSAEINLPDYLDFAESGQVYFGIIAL

human TNF-α [5] = biological target: T1, human TNF-α; remark: listed apart in the source
cyno IL-6 [6] = biological target: T2, cyno IL-6; remark: listed apart in the source
human IL-6 [7] = biological target: T3, human IL-6; remark: listed apart in the source
cyno TNF-α [8] = biological target: T4, cyno TNF-α; remark: listed apart in the source

T1 sequence (P01375 77-233 limits assumed): as the sequence (P79337 77-233 limits assumed) above, with V37L, T44R, N72T, L138R counted along it

Row | Binder | IC50 hTNF-α Nfkb assay (human TNF-α [1]) [pM] | Ratio IC50 cyno IL-6/hIL-6 (cyno IL-6 [2]) [ratio] | IC50 hIL-6 TF1 proliferation assay (human IL-6 [3]) [pM] | Ratio IC50 cyno TNFα/hTNFα (cyno TNF-α [4]) [ratio] | Ratio IC50 reference anti-TNF-α mAb/Nb (human TNF-α [5]) [ratio] | hTNF-α Nfkb assay (IC50, pM) (human TNF-α [5]) [pM] | cyno IL-6 TF1 proliferation assay (IC50, pM) (cyno IL-6 [6]) [pM] | Ratio IC50 reference anti-IL-6 mAb1/Nb (human IL-6 [7]) [ratio] | hIL-6 TF1 proliferation assay (IC50, pM) (human IL-6 [7]) [pM] | cyno TNF-α NFkb assay (IC50, pM) (cyno TNF-α [8]) [pM]
1 | F027200166 (bispecific antibody) EVQLVESGGGVVQPGGSLRLSCAASGIIFSINAMGWYRQAPGKQRELVADIFPFGSTEYADSVKGRFTISRDNAKNTVYLQMNSLRPEDTALYYCHSYDPRGDDYWGQGTLVTVSSGGGGSGGGSEVQLVESGGGVVQPGGSLRLSCAASGFTLAYYAIGWFRQAPGKEREGVSCISGSVGTTYYADSVKGRFTISRDNAKNTVYLQMNSLRPEDTALYYCVRSSWFDCGVQGRDLGNEYDYRGQGTLVTVSSGGGGSGGGSEVQLVESGGGVVQPGGSLRLSCAASGFTFRSFGMSWVRQAPGKGPEWVSSISGSGSDTLYADSVKGRFTISRDNSKNTLYLQMNSLRPEDTALYYCTIGGSLSRSSQGTLVTVSSGGGGSGGGSEVQLVESGGGVVQPGGSLRLSCTASGFTFSTADMGWFRQAPGKGREFVARISGIDGTTYYDEPVKGRFTISRDNSKNTVYLQMNSLRPEDTALYYCRSPRYADQWSAYDYWGQGTLVKVSS | 160 | 10 | 2250 | 3.3 | – | – | – | – | – | –
2 | F027200812 (bispecific antibody) DVQLVESGGGVVQPGGSLRLSCAASGRTFSNYAMAWFRQAPGKEREFVAVISYAGGRTYYADSVKGRFTISRDNAKNTVYLQMNSLRPEDTALYYCAAVDSPLIATHPRGYDYWGQGTLVTVSSGGGGSGGGSEVQLVESGGGVVQPGGSLRLSCAASGFTFRSFGMSWVRQAPGKGPEWVSSISGSGSDTLYADSVKGRFTISRDNSKNTLYLQMNSLRPEDTALYYCTIGGSLSRSSQGTLVTVSSGGGGSGGGSEVQLVESGGGVVQPGGSLRLSCAASGFSLDYYGVGWFRQAPGKEREGVSCISSSEGDTYYADSVKGRFTISRDNAKNTVYLQMNSLRPEDTALYYCATDLSDYGVCSRWPSPYDYWGQGTLVKVSSGGGGSGGGSEVQLVESGGGVVQPGGSLRLSCTASGFTFSTADMGWFRQAPGKGREFVARISGIDGTTYYDEPVKGRFTISRDNSKNTVYLQMNSLRPEDTALYYCRSPRYADQWSAYDYWGQGTLVKVSS | 206 | 0.7 | 72 | 1.7 | 0.62 | 206 | 54 | 1.7 | 72 | 360
3 | F027201029 (bispecific antibody) EVQLVESGGGVVQPGGSLRLSCTASGFTFSTADMGWFRQAPGKGREFVARISGIDGTTYYDEPVKGRFTISRDNSKNTVYLQMNSLRPEDTALYYCRSPRYADQWSAYDYWGQGTLVKVSSGGGGSGGGSDVQLVESGGGVVQPGGSLRLSCAASGRTFSNYAMAWFRQAPGKEREFVAVISYAGGRTYYADSVKGRFTISRDNAKNTVYLQMNSLRPEDTALYYCAAVDSPLIATHPRGYDYWGQGTLVTVSSGGGGSGGGSEVQLVESGGGVVQPGGSLRLSCAASGFTFRSFGMSWVRQAPGKGPEWVSSISGSGSDTLYADSVKGRFTISRDNSKNTLYLQMNSLRPEDTALYYCTIGGSLSRSSQGTLVTVSSGGGGSGGGSEVQLVESGGGVVQPGGSLRLSCAASGIIFSINAMGWYRQAPGKQRELVADIFPFGSTEYADSVKGRFTISRDNAKNTVYLQMNSLRPEDTALYYCHSYDPRGDDYWGQGTLVTVSS | 68.5 | 0.6 | 347 | 2 | 0.83 | 69 | 209 | 5.3 | 347 | 139
4 | F027200925 (bispecific antibody) DVQLVESGGGVVQPGGSLRLSCTASGFTFSTADMGWFRQAPGKGREFVARISGIDGTTYYDEPVKGRFTISRDNSKNTVYLQMNSLRPEDTALYYCRSPRYADQWSAYDYWGQGTLVTVSSGGGGSGGGSEVQLVESGGGVVQPGGSLRLSCAASGIIFSINAMGWYRQAPGKQRELVADIFPFGSTEYADSVKGRFTISRDNAKNTVYLQMNSLRPEDTALYYCHSYDPRGDDYWGQGTLVTVSSGGGGSGGGSEVQLVESGGGVVQPGGSLRLSCAASGFTFRSFGMSWVRQAPGKGPEWVSSISGSGSDTLYADSVKGRFTISRDNSKNTLYLQMNSLRPEDTALYYCTIGGSLSRSSQGTLVTVSSGGGGSGGGSEVQLVESGGGVVQPGGSLRLSCAASGRTFSSYVMGWFRQAPGKEREFVSTINWAGSRGYYADSVKGRFTISRDNAKNTVYLQMNSLRPEDTALYYCAASAGGFLVPRVGQGYDYWGQGTLVKVSSA | 64.3 | 2.8 | 610 | 4.1 | 1.43 | 64 | 1710 | 14.8 | 610 | 265
5 | F027200157 (bispecific antibody) EVQLVESGGGVVQPGGSLRLSCTASGFTFSTADMGWFRQAPGKGREFVARISGIDGTTYYDEPVKGRFTISRDNSKNTVYLQMNSLRPEDTALYYCRSPRYADQWSAYDYWGQGTLVKVSSGGGGSGGGSEVQLVESGGGVVQPGGSLRLSCAASGFTFRSFGMSWVRQAPGKGPEWVSSISGSGSDTLYADSVKGRFTISRDNSKNTLYLQMNSLRPEDTALYYCTIGGSLSRSSQGTLVTVSSGGGGSGGGSEVQLVESGGGVVQPGGSLRLSCAASGIIFSINAMGWYRQAPGKQRELVADIFPFGSTEYADSVKGRFTISRDNAKNTVYLQMNSLRPEDTALYYCHSYDPRGDDYWGQGTLVTVSSGGGGSGGGSEVQLVESGGGVVQPGGSLRLSCAASGFTLAYYAIGWFRQAPGKEREGVSCISGSVGTTYYADSVKGRFTISRDNAKNTVYLQMNSLRPEDTALYYCVRSSWFDCGVQGRDLGNEYDYRGQGTLVTVSS | 124 | 7.1 | 3330 | 4 | – | – | – | – | – | –
6 | F027200809 (bispecific antibody) EVQLVESGGGVVQPGGSLRLSCTASGFTFSTADMGWFRQAPGKGREFVARISGIDGTTYYDEPVKGRFTISRDNSKNTVYLQMNSLRPEDTALYYCRSPRYADQWSAYDYWGQGTLVKVSSGGGGSGGGSDVQLVESGGGVVQPGGSLRLSCAASGRTFSNYAMAWFRQAPGKEREFVAVISYAGGRTYYADSVKGRFTISRDNAKNTVYLQMNSLRPEDTALYYCAAVDSPLIATHPRGYDYWGQGTLVTVSSGGGGSGGGSEVQLVESGGGVVQPGGSLRLSCAASGFTFRSFGMSWVRQAPGKGPEWVSSISGSGSDTLYADSVKGRFTISRDNSKNTLYLQMNSLRPEDTALYYCTIGGSLSRSSQGTLVTVSSGGGGSGGGSEVQLVESGGGVVQPGGSLRLSCAASGFSLDYYGVGWFRQAPGKEREGVSCISSSEGDTYYADSVKGRFTISRDNAKNTVYLQMNSLRPEDTALYYCATDLSDYGVCSRWPSPYDYWGQGTLVKVSS | 141 | 0.9 | 68.2 | 2.3 | 0.91 | 141 | 61 | 1.7 | 68 | 329
7 | F027200929 (bispecific antibody) EVQLVESGGGVVQPGGSLRLSCAASGRTFSSYVMGWFRQAPGKEREFVSTINWAGSRGYYADSVKGRFTISRDNAKNTVYLQMNSLRPEDTALYYCAASAGGFLVPRVGQGYDYWGQGTLVTVSSGGGGSGGGSEVQLVESGGGVVQPGGSLRLSCAASGFTFRSFGMSWVRQAPGKGPEWVSSISGSGSDTLYADSVKGRFTISRDNSKNTLYLQMNSLRPEDTALYYCTIGGSLSRSSQGTLVTVSSGGGGSGGGSEVQLVESGGGVVQPGGSLRLSCAASGFSLDYYGVGWFRQAPGKEREGVSCISSSEGDTYYADSVKGRFTISRDNAKNTVYLQMNSLRPEDTALYYCATDLSDYGVCSRWPSPYDYWGQGTLVKVSSGGGGSGGGSEVQLVESGGGVVQPGGSLRLSCTASGFTFSTADMGWFRQAPGKGREFVARISGIDGTTYYDEPVKGRFTISRDNSKNTVYLQMNSLRPEDTALYYCRSPRYADQWSAYDYWGQGTLVKVSS | 85.8 | 1 | 73.8 | 3.2 | – | – | – | – | – | –
